This note sets out measurements from article PMC8135044, “Lytic transglycosylase MltG cleaves in nascent peptidoglycan and produces short glycan strands” (The Cell Surface, 2021).

The test addresses T1, BsPBP2B (Bacillus subtilis, UniProt Q07868 1-713).
T1 construct: Not pulled down by Ni-NTA beads alone; also called class B PBP2B; source: E. coli BL21 (DE3), purified from membranes (Ni-NTA, thrombin, HiTrap SP ion exchange)
T1 sequence (looked up): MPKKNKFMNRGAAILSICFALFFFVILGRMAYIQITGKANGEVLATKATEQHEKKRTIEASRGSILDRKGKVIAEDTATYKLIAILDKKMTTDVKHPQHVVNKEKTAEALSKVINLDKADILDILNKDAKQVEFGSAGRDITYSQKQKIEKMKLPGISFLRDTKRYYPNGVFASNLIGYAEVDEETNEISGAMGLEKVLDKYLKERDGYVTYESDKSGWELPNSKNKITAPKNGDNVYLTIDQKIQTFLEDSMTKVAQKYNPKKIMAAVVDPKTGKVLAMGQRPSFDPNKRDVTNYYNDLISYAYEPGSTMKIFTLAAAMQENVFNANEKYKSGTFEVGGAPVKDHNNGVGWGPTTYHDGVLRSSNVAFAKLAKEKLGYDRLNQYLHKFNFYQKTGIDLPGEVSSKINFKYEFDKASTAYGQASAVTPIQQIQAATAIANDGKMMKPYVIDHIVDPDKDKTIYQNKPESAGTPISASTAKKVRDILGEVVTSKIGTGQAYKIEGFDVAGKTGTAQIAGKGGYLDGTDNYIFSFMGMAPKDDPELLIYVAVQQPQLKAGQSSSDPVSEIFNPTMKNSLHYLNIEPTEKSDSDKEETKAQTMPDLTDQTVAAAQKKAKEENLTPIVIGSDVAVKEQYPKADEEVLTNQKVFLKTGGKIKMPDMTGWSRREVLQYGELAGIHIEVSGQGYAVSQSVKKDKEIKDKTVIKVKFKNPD
In words: SPR; PBP2B covalently bound to ampicillin immobilised on the chip; BsMltG injected as analyte, 0 to 500 nM; 25 C; 10 mM Tris/Maleate, 150 mM NaCl, 0.05% Triton X-100, pH 7.5; response at equilibrium fitted to one site saturation; three independent experiments. The note with it: both partners purified.

B1: BsMltG (enzyme, Bacillus subtilis, UniProt O34758 1-360, looked up)
chain: MYINQQKKSFFNKKRIILSSIVVLFLIIGGAFLYGKSLLEPVEKDSKTTVNINIPSGSSVSAIASILKKNDVIKSEKAFQYYVKYKGASGFQAGFYHLNKGMDLDAIIQKLTSGATGYAFQITVTEGAQLTQIAAAIADETKYSKKQVIAKLDDETFINQLKKEFPDTVTNDVFNKNIKHPLEGYLFPATYPFNDPDTSLEDIIKAMIKQTNSYVETYKSEMKKNKVSVHKLLTMASLIEEEATEKADRHKIASVFYNRLKKKMPLQTDPTVLYAAGKHKDRVLYKDLEIDSPYNTYKNTGLTPGPIANAGMSSWEAALHPDKTDYLYFLAKSNGEVVFTKTLKEHNKAKEKYISSKNEK
notes: Named without 'His-' in the SPR and activity assays; also called YrrL; MltG from Bacillus subtilis; source: E. coli BL21 (DE3), purified from membranes (Ni-NTA, thrombin, HiTrap SP ion exchange)
The molecule B1 had a Kd of 0.128 ± 0.028 µM.
